Consider 2 molecules from paper PMC3809846 (International journal of cancer. Journal international du …, 2012).

Test [1] concerns the target podoplanin expressed on brain tumor cells (Homo sapiens, UniProt Q86YL7). Briefly: flow cytometry on cells.
In test [2] the target is T1, biotinylated podoplanin peptide (hpp38-51) (Homo sapiens, UniProt Q86YL7, also: biotin, position not given here).
T1 chain: EGGVAMPGAEDDVV
In words: SPR.

Where a chain is given by its changes, count along the chain named. No end group written: not given here.

Chain of podoplanin expressed on brain tumor cells (Q86YL7 23-162): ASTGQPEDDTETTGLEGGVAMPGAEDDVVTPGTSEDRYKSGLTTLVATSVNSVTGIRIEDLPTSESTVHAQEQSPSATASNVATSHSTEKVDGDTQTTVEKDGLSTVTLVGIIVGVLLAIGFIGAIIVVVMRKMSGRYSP

B1: NZ-1 monoclonal antibody (antibody, V domains shown)
VH: EVQLVESGGGLVQPGRSLKLSCAASGFTFSNYGMAWVRQTPTKGLEWIASISAGGDKTYYGDSVKGRFSISRDNAKTTHYLQMDSLRSEDTATYYCAKTSRVYFDYWGQGVMVTVSS
VL: QFVLTQPNSVSTNLGSTVKLSCKRSTGNIGSNYVNWYQQHEGRSPTTMIYRDDKRPDGVPDRFSGSIDRSSNSALLTINNVQTEDEADYFCHSYSSGIVFGGGTKLTVL
As to B1, the binding result in test [1] is given as “binds”.

B2: NZ-1-(scdsFv) (scFv, V domains shown)
VH: B1 VH with G44C
VL: B1 VL with G103C
In test [2], B2 yielded a Ka of 4.8e+07 M⁻¹.
